The results in this text go back to publication PMC3354533.

The test deals with endogenous calcineurin A (CaNA) in mouse primary cortical neurons (mouse (endogenous in primary cortical neurons)) (UniProt P63328). In words: FRET or BRET. Background: BRET reads energy transfer from a luciferase to a nearby fluorophore.

Turning to “endogenous calcineurin B subunit (CaNB) in mouse primary cortical neurons (from UniProt Q63810 1-170) (natural protein)”, the 565/522 ratio, spine, AD brain SEC fraction 60 min worked out at 0.451; the FRET Ratio increase, cytoplasm, 6 hours of TgCM came out at 0.51; the FRET Ratio increase, nucleus, 6 hours of TgCM was 0.49; the peak of the FRET distribution in spines, 15 min of TgCM came out at 0.45. Moreover, the peak of the FRET distribution in spines, 30 min of TgCM was 0.48 and the peak of the FRET distribution in spines, 60 min of TgCM worked out at 0.48.

As to “endogenous calmodulin (CaM) in mouse primary cortical neurons (from UniProt P0DP26 1-149) (natural protein)”, the peak of the FRET distribution in spines, 15 min of TgCM amounted to 0.38; the peak of the FRET distribution in spines, 30 min of TgCM came out at 0.39; the peak of the FRET distribution in spines, 60 min of TgCM was 0.4.
